# Patent US20210230599, “STEM-LOOP COMPOSITIONS AND METHODS FOR INHIBITING INTERLEUKIN-8” (VITRISA THERAPEUTICS, INC., published 2021)
# Key:
# [1] = molecular target: T1, Interleukin-8 (IL8, CXCL8), C-terminal His-tagged (Homo sapiens, UniProt P10145 SEQ:1-72); experiment: TR-FRET, 500 pM IL8, protein-limited; estimated about 20 pM; conditions: tags: C-terminal 6xHis (Sino Biological); label: Alexa Fluor 647; stem-loop
# Protocol: Under these assay conditions, the ability to measure the affinity accurately is limited by the input IL8 protein concentration, and the apparent Kd under these protein-limiting conditions was determined to be 8 nM.
# [2] = molecular target: T1, Interleukin-8 (IL8, CXCL8), C-terminal …; experiment: competition; competition TR-FRET; L2 mutant; conditions: tags: C-terminal 6xHis (Sino Biological)
# Protocol: (§1) Activity of each of these variants were tested using a time resolved competition TR-FRET assay in which the labeled parent Aptamer 3 was competed with increasing concentrations of unlabeled variants for binding to IL8 (FIG. 14). Briefly, 2-fold dilutions of thermally equilibrated aptamers were made in TR-FRET Buffer (50 mM MOPS, pH 7.4, 125 mM NaCl, 5 mM KCl, 50 μM CHAPS, 0.1 mg/mL BSA, 1 mM CaCl₂, and 1 mM MgCl₂). 5 μL of aptamer or control solution was added to 5 μl mix of 10 nM C-terminal His-tagged-IL8, 60 nM ALEXA FLUOR® 647-labeled Aptamer, and 5 nM anti-His-Eu (Perkin Elmer) in a black wall low volume 384 well plate (Greiner). For control, 5 μl of 1000-fold excess of unlabeled parent aptamer or 5 μl TR-FRET buffer alone was added to the mix of ALEXA FLUOR® 647-labeled aptamer, His-IL8, and anti-His-Eu. The plate was covered with a plate seal and subsequently incubated in the dark for 1 hour at room temperature. The plate was read on a Biotek CYTATION™ 5 plate reader. Samples were excited at 330 nm and fluorescent values were collected at 665 nm. Data analysis was performed by subtracting the background value and plotting as percent inhibition, normalized to baseline in the absence of competitor. The values were fit by [Inhibitor] vs. response—Variable slope (four parameters) using GraphPad Prism Version 7.0 and then normalized to aptamer control to obtain an IC₅₀ relative to parent aptamer. Data is presented as log values of relative IC₅₀.
# (§2) Like L1, most of L2 was also found to be 100% conserved in the degenerate selection, except residue U20, which was ˜92% conserved (FIG. 31). To test sequence requirements of L2, variants of Aptamer 32 were made, where each position of L2 was individually replaced with the other 3 bases and tested for binding in the competition TR-FRET assay.
# [3] = molecular target: T1, Interleukin-8 (IL8, CXCL8), C-terminal …; experiment: TR-FRET; bead flow 13 nM; conditions: tags: C-terminal 6xHis (Sino Biological); label: Alexa Fluor 647
# Protocol: (§3) Aptamers were synthesized and labeled with ALEXA FLUOR® 647, and binding to IL8 was quantified by Time-Resolved Fluorescence Resonance Energy Transfer (TR-FRET). Briefly, 2-fold dilutions of thermally equilibrated aptamers were made in TR-FRET Buffer (50 mM MOPS, pH 7.4, 125 mM NaCl, 5 mM KCl, 50 μM CHAPS, 0.1 mg/mL BSA, 1 mM CaCl₂ and 1 mM MgCl₂). […] of aptamer or control solution was added to 10 μL of 15 nM C-His-tagged-IL8 (Sino Biological) in a black wall half-area plate (Corning). In the same plate, 10 μl of aptamer solution was added to 10 μl of TR-FRET buffer alone to use for background subtraction. 10 μl of 15 nM anti-His-Eu (Perkin Elmer) was added to each well, the plate was covered with a plate seal and subsequently incubated in the dark for 1 hour at room temperature. The plate was read on a Biotek CYTATION™ 5 plate reader. Samples were excited at 330 nm and fluorescent values were collected at 665 nm. […] Apparent Kd values obtained for the fits are calculated as the concentration of half-maximal binding and shown in Table 10, and fit curves as FIG. 6. […] It is also possible that differences may arise due to TR-FRET being a homogenous solution binding assay, while bead binding has immobilized ligand and is non-homogenous, so bound aptamers may dissociate during analysis resulting in higher calculated Kd values.
# [4] = molecular target: T1, Interleukin-8 (IL8, CXCL8), C-terminal …; experiment: TR-FRET; conditions: tags: C-terminal 6xHis (Sino Biological); label: Alexa Fluor 647
# Protocol: as §3
# [5] = molecular target: T1, Interleukin-8 (IL8, CXCL8), C-terminal …; experiment: competition; competition TR-FRET; S2 shortened; conditions: tags: C-terminal 6xHis (Sino Biological)
# Protocol: To better understand the sequence requirements and to confirm the stem structures of members of the Aptamer 3 family as determined from sequence covariation analysis from both the primary and secondary (degenerate) selections, a series of variants which included mutations and deletions to the predicted stems were synthesized and screened (Table 24). Activity of each of these variants were tested using a time resolved competition TR-FRET assay in which the labeled parent Aptamer 3 was competed with increasing concentrations of unlabeled variants for binding to IL8 (FIG. 14). Briefly, 2-fold dilutions of thermally equilibrated aptamers were made in TR-FRET Buffer (50 mM MOPS, pH 7.4, 125 mM NaCl, 5 mM KCl, 50 μM CHAPS, 0.1 mg/mL BSA, 1 mM CaCl₂, and 1 mM MgCl₂). 5 μL of aptamer or control solution was added to 5 μl mix of 10 nM C-terminal His-tagged-IL8, 60 nM ALEXA FLUOR® 647-labeled Aptamer, and 5 nM anti-His-Eu (Perkin Elmer) in a black wall low volume 384 well plate (Greiner). For control, 5 μl of 1000-fold excess of unlabeled parent aptamer or 5 μl TR-FRET buffer alone was added to the mix of ALEXA FLUOR® 647-labeled aptamer, His-IL8, and anti-His-Eu. The plate was covered with a plate seal and subsequently incubated in the dark for 1 hour at room temperature. The plate was read on a Biotek CYTATION™ 5 plate reader. […]
# [6] = molecular target: T1, Interleukin-8 (IL8, CXCL8), C-terminal …; experiment: competition; competition TR-FRET; conditions: tags: C-terminal 6xHis (Sino Biological)
# Protocol: as §1
# Variants of Aptamers 94, 99, and 100 were synthesized with an optimized stem S1 and G18 was also replaced with a Sp3 spacer to see if further improvements could be made to these molecules (Table 30 and FIG. 20).
# [7] = molecular target: T1, Interleukin-8 (IL8, CXCL8), C-terminal …; experiment: competition; competition TR-FRET; conditions: tags: C-terminal His (Sino Biological); stem-loop
# Protocol: To better understand the sequence requirements and to confirm the stem structures of members of the Aptamer 3 family as determined from sequence covariation analysis from both the primary and secondary (degenerate) selections, a series of variants which included mutations and deletions to the predicted stems were synthesized and screened (Table 24). […] Briefly, 2-fold dilutions of thermally equilibrated aptamers were made in TR-FRET Buffer (50 mM MOPS, pH 7.4, 125 mM NaCl, 5 mM KCl, 50 μM CHAPS, 0.1 mg/mL BSA, 1 mM CaCl₂, and 1 mM MgCl₂). 5 μL of aptamer or control solution was added to 5 μl mix of 10 nM C-terminal His-tagged-IL8, 60 nM ALEXA FLUOR® 647-labeled Aptamer, and 5 nM anti-His-Eu (Perkin Elmer) in a black wall low volume 384 well plate (Greiner). For control, 5 μl of 1000-fold excess of unlabeled parent aptamer or 5 μl TR-FRET buffer alone was added to the mix of ALEXA FLUOR® 647-labeled aptamer, His-IL8, and anti-His-Eu. The plate was covered with a plate seal and subsequently incubated in the dark for 1 hour at room temperature. The plate was read on a Biotek CYTATION™ 5 plate reader. Samples were excited at 330 nm and fluorescent values were collected at 665 nm. Data analysis was performed by subtracting the background value and plotting as percent inhibition, normalized to baseline in the absence of competitor. The values were fit by [Inhibitor] vs. response—Variable slope (four parameters) using GraphPad Prism Version 7.0 and then normalized to aptamer control to obtain an IC₅₀ relative to parent aptamer. Data is presented as log values of relative IC₅₀.
# as §2
binder,measurement,setting,value
"GGCGACGGUAGAUUAUGGGCAGUGUGACCGCGCC (ssRNA, 2'-F G, 2'-OMe A/C/U, 5' C6NH2, 3' idT) [Aptamer 147]",Kd,[1],0.11 nM
"GGCGACGGUAGAUUAUGGGCAGUGUGACCGCGCC (ssRNA, 2'-OMe A/C/U, 2'-OMe G in stems S1, S2 and loop L2, 2'-F at other G, 5' C6NH2, 3' idT) [Aptamer 269]",Kd,[1],0.126 nM
"CGGUGGGAAAUGUCAGAUGGGUUGCCG (ssRNA, 2'-F G, 2'-OMe A/C/U, 5' C6NH2, 3' idT) [Aptamer 168]",binding signal,[2],> 10 fold worse than Aptamer 8
"CGGUGGGAAAUGUGCGAUGGGUUGCCG (ssRNA, 2'-F G, 2'-OMe A/C/U, 5' C6NH2, 3' idT) [Aptamer 171]",binding signal,[2],> 10 fold worse than Aptamer 8
"CGGUGGGAAAUGUGGGAUGGGUUGCCG (ssRNA, 2'-F G, 2'-OMe A/C/U, 5' C6NH2, 3' idT) [Aptamer 172]",binding signal,[2],> 10 fold worse than Aptamer 8
"CGGUGGGAAAUGUGACAUGGGUUGCCG (ssRNA, 2'-F G, 2'-OMe A/C/U, 5' C6NH2, 3' idT) [Aptamer 174]",binding signal,[2],> 10 fold worse than Aptamer 8
"CGGUGGGAAAUGUGAGGUGGGUUGCCG (ssRNA, 2'-F G, 2'-OMe A/C/U, 5' C6NH2, 3' idT) [Aptamer 178]",binding signal,[2],> 10 fold worse than Aptamer 8
"CGGUGGGAAAUGUGAGAGGGGUUGCCG (ssRNA, 2'-F G, 2'-OMe A/C/U, 5' C6NH2, 3' idT) [Aptamer 180]",binding signal,[2],> 10 fold worse than Aptamer 8
"UUAGCCCUGCCAUUGGGGCAUACUUUGGCCGCACU (ssRNA, 2'-F G, 2'-OMe A/C/U, 5' C6NH2, 3' idT) [Aptamer 23]",Kd,[3],12 nM
"UGGAUGACAUUCGGGGGCACCAAUCAUCGUCUGCU (ssRNA, 2'-F G, 2'-OMe A/C/U, 5' C6NH2, 3' idT) [Aptamer 18]",Kd,[4],13 nM
"UCAGUUGCGGCCCCUGAUACCGAUUUGCCGCCCGGU (ssRNA, 2'-F G, 2'-OMe A/C/U, 5' C6NH2, 3' idT) [Aptamer 15]",Kd,[4],22 nM
"GCGACGUAGAUUACGGGUAGAGUGACGCGC (ssRNA, 2'-F G, 2'-OMe A/C/U, 5' C6NH2, 3' idT) [Aptamer 44]",binding signal,[5],> 10 fold worse than Aptamer 3
"GAUGACGGUAGAUUUCGGGUAGUGUGACCGCAUC (ssRNA, 2'-F G, 2'-OMe A/C/U, 5' C6NH2, 3' idT) [Aptamer 142]",binding result,[6],binds
"GAUGACGGUAGAUUAUGGGCAGUGUGACCGCAUC (ssRNA, 2'-F G, 2'-OMe A/C/U, 5' C6NH2, 3' idT) [Aptamer 146]",binding result,[6],binds
"GAUGACGGUAGAUUAUGGGAAGUGUGACCGCAUC (ssRNA, 2'-F G, 2'-OMe A/C/U, 5' C6NH2, 3' idT) [Aptamer 150]",binding result,[6],binds
"GGCGACGGUAGAUUAUGGGAAGUGUGACCGCGCC (ssRNA, 2'-F G, 2'-OMe A/C/U, 5' C6NH2, 3' idT) [Aptamer 151]",binding result,[6],binds
"GCGACGGUAGAUUAUGGGAAGUGUGACCGCGC (ssRNA, 2'-F G, 2'-OMe A/C/U, 5' C6NH2, 3' idT) [Aptamer 152]",binding result,[6],binds
"UGCGGCCUCCGUUGACUGUUGUAAUGCCGGGACAGU (ssRNA, 2'-F G, 2'-OMe A/C/U, 5' C6NH2, 3' idT) [Aptamer 14]",Kd,[3],6 nM
"CGGUGGGAAAUGUAAGAUGGGUUGCCG (ssRNA, 2'-F G; 2'-OMe A,C,U; 5' C6NH2; 3' idT) [Aptamer 169]",binding signal,[7],> 10 fold worse than Aptamer 8
"CGGUGGGAAAUGUUAGAUGGGUUGCCG (ssRNA, 2'-F G; 2'-OMe A,C,U; 5' C6NH2; 3' idT) [Aptamer 170]",binding signal,[7],> 10 fold worse than Aptamer 8
"CGGUGGGAAAUGUGUGAUGGGUUGCCG (ssRNA, 2'-F G; 2'-OMe A,C,U; 5' C6NH2; 3' idT) [Aptamer 173]",binding signal,[7],> 10 fold worse than Aptamer 8
"CGGUGGGAAAUGUGAAAUGGGUUGCCG (ssRNA, 2'-F G; 2'-OMe A,C,U; 5' C6NH2; 3' idT) [Aptamer 175]",binding signal,[7],> 10 fold worse than Aptamer 8
"CGGUGGGAAAUGUGAUAUGGGUUGCCG (ssRNA, 2'-F G; 2'-OMe A,C,U; 5' C6NH2; 3' idT) [Aptamer 176]",binding signal,[7],> 10 fold worse than Aptamer 8
"CGGUGGGAAAUGUGAGUUGGGUUGCCG (ssRNA, 2'-F G; 2'-OMe A,C,U; 5' C6NH2; 3' idT) [Aptamer 179]",binding signal,[7],> 10 fold worse than Aptamer 8
